In patent US20030114646A1 (Human Genome Sciences, published 2003) one finds Ki data, which are given here for one molecule.

This assay deals with T1, papain (UniProt P00784 134-345).
T1 sequence (looked up): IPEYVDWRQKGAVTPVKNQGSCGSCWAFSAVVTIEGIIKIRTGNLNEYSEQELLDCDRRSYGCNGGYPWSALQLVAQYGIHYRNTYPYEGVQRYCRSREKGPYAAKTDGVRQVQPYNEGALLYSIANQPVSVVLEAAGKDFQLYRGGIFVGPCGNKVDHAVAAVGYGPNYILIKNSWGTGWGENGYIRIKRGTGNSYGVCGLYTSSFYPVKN
Briefly: reversible inhibition of papain activity, Ki corrected for substrate competition (Km=60 µM).

B1: human Cystatin F (recombinant, produced in a baculovirus system) (other)
chain: GPSPDTCSQDLNSRVKPGFPKTIKTNDPGVLQAARYSVEKFNNCTNDMFLFKESRITRALVQIVKGLKYMLEVEIGRTTCKKNQHLRLDDCDFQTNHTLKQTLSCYSEVWVVPWLQHFEVPVLRCH
notes: 20-145 is used here; also called recombinant Cystatin F
As usually defined, the Ki is the equilibrium dissociation constant of an inhibitor or competing ligand from its target. Low values mean higher affinity, high ones lower affinity. In the case of B1, the Ki was 1.05 nM. In other words, the single-digit nanomolar range.
